Source: patent publication US20230330254A1 (Regeneron Pharmaceuticals, Inc., priority 2022, published 2023)

Legend:
[1] = target: T1, hGLP1R-MMH (N-terminal region of human GLP1R) (Homo sapiens, UniProt P43220); test: Biacore binding kinetics (surface plasmon resonance); conditions: 25° C.; for Ka: association rate
T1 construct: the N-terminal ectodomain of human GLP1R expressed with a myc-myc hexahistidine tag
Method: The equilibrium dissociation constant (KD) for GLP1R binding to different unconjugated GLP1R monoclonal antibodies (mAbs) or to GLP1R antibody tethered drug conjugates (ATDCs) was determined using a real-time surface plasmon resonance biosensor using a Biacore 3000, Biacore S200, Biacore 4000, Biacore T-200, or a Sierra Sensor MASS-2 instrument. All binding studies were performed in 10 mM HEPES, 150 mM NaCl, 3 mM EDTA, and 0.05% v/v Surfactant Tween-20, pH 7.4 (HBS-ET) running buffer at 25° C. The Biacore CM5 sensor chip surface was first derivatized by amine coupling with human Fc specific mouse mAb (REGN2567) to capture different GLP1R mAbs or ATDCs. Different concentrations (100, 90, 33.3, 30, 11.1, 10, 3.7, 3.3 and 1.1 nM) of the N-terminal region of human GLP1R expressed with a myc-myc-hexahistidine tag (“hexahistidine tag” disclosed as SEQ ID NO: 441) (hGLP1R-MMH) prepared in HBS-ET running buffer were injected over the GLP1R mAb captured surface for 240 or 300 sec at a flow rate of 50 μL/min and their dissociation in HBS-ET running buffer was monitored for 10 minutes. At the end of each cycle, the GLP1R mAb or ATDC capture surface was regenerated using a 10 sec injection of 20 mM phosphoric acid.
The association rate (ka) and dissociation rate (kd) were determined by fitting the real-time binding sensorgrams to a 1:1 binding model with mass transport limitation using Scrubber 2.0c curve-fitting software. Binding dissociation equilibrium constant (KD) and dissociative half-life (t %2) were calculated from the kinetic rates as: […]

HEK293/CRE-Luc cells = test: Flow cytometry cell binding, HEK293/CRE-Luc control cells (Example 18); parameters: species or system human; conditions: Table 30, control cells lacking GLP1R; for EC50: no unit printed in table (text reads values as M); for HEK293/CRE-Luc Flow S/N: signal to noise
Method: GLP1R agonist linker payloads were conjugated to anti-GLP1R antibodies via N-terminal heavy or light chain Glutamine (Q) tags. Several resulting anti-GLP1R-GLP1R agonist antibody tethered drug conjugates (ATDCs) and their unconjugated parental antibodies were tested for cell-based binding activity. The cell surface binding of the anti-GLP1R ATDCs to human GLP1R (HEK293/CRE-Luc/hGLP1R), cynomolgus GLP1R (HEK293/CRE-Luc/mfGLP1R), and control cells lacking expression of GLP1R (HEK293/CRE-Luc) was assessed via flow cytometry. For the assay, 61,000-230,000 cells were suspended in PBS, w/2% FBS and 0.2% sodium azide (staining buffer) in 96 well V-bottom plates and incubated for 30 minutes at 4° C. with three-fold serial dilutions of the anti-GLP1R ATDCs, non-binding control ATDCs, or unconjugated anti-GLP1R antibodies. The last well in each row of the plate served as a blank control containing only secondary antibody and was plotted as a continuation of the 3-fold serial dilution. […] Cells were then washed once and stained with a cell viability dye (Live/dead Fixable Green Dead Cell Stain Kit for 488 nm excitation, Molecular Probes cat #L34970) at 1× in PBS for 20 minutes at 4° C. Cells were washed once in staining buffer, fixed for 20 minutes at 4° C. using a 50% solution of Cytofix (BD Biosciences, Cat #554655) diluted in PBS, and washed again in staining buffer. Samples were filtered through Pall 96 well plate PP/PE mesh filter system and collected in Costar 96 well plate. Samples were run on the iQue flow cytometer (Intellicyte) and results were analyzed using Forecyte analysis software (Intellicyte) to calculate the mean fluorescent intensity (MFI) after gating for live cells. EC50 values were determined using a four-parameter logistic equation over a 10-point dose response curve (GraphPad Prism). The signal to noise (S/N) was determined by taking the ratio of the highest MFI on the dose response curve to the MFI in the secondary alone wells.

human GLP1R = target: T2, human GLP1R (Homo sapiens, UniProt P43220); test: Flow cytometry cell binding, HEK293/CRE-Luc/hGLP1R (Example 18); conditions: Table 30, no unit printed in table (text b1840 reads values as M), experiments A, C, D
T2 construct: engineered to express full-length human GLP1R, cynomolgus GLP1R; expressed in transfected cells; host or cells: HEK293/CRE-Luc
T2 sequence (P43220 24-463): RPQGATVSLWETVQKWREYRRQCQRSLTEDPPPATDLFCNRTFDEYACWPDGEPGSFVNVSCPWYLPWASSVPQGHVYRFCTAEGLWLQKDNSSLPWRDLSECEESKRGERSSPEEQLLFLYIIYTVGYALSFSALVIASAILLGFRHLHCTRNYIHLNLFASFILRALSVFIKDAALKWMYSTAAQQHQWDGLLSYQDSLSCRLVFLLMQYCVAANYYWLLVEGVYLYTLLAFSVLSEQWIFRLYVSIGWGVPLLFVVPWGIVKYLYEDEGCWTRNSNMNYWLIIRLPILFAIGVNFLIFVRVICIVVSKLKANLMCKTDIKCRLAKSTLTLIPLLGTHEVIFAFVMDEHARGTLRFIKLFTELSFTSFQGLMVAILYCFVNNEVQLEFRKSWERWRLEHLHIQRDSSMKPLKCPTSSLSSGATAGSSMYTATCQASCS
Method: GLP1R agonist linker payloads were conjugated to anti-GLP1R antibodies via N-terminal heavy or light chain Glutamine (Q) tags. […] The cell surface binding of the anti-GLP1R ATDCs to human GLP1R (HEK293/CRE-Luc/hGLP1R), cynomolgus GLP1R (HEK293/CRE-Luc/mfGLP1R), and control cells lacking expression of GLP1R (HEK293/CRE-Luc) was assessed via flow cytometry. […] The last well in each row of the plate served as a blank control containing only secondary antibody and was plotted as a continuation of the 3-fold serial dilution. […] Samples were filtered through Pall 96 well plate PP/PE mesh filter system and collected in Costar 96 well plate. Samples were run on the iQue flow cytometer (Intellicyte) and results were analyzed using Forecyte analysis software (Intellicyte) to calculate the mean fluorescent intensity (MFI) after gating for live cells. EC50 values were determined using a four-parameter logistic equation over a 10-point dose response curve (GraphPad Prism). The signal to noise (S/N) was determined by taking the ratio of the highest MFI on the dose response curve to the MFI in the secondary alone wells.

T1 sequence (P43220 24-139 limits assumed): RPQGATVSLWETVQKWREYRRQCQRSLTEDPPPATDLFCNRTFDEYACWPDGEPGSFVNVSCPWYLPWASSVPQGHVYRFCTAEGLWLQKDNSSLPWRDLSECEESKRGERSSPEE

Molecule	Ka ([1]; hGLP1R-MMH)	dissociation rate constant (kd) ([1]; hGLP1R-MMH)	EC50 (HEK293/CRE-Luc cells)	HEK293/CRE-Luc Flow S/N (HEK293/CRE-Luc cells)	90 nM hGLP1R.mmh Bound ([1]; antibody captured on anti-human Fc surface, 90 nM hGLP1R-MMH)	Kd ([1]; hGLP1R-MMH, calculated from the kinetic rates)	EC50 (human GLP1R)
H2aM30341N (antibody, V domains shown) VH: QVQLQQWGAGLLKPSETLSLTCAVYGGSFSGYYWSWIRQPPGKGLEWIGEINHAGSTNYNPSLKSRITISVDTSKNQFSLKLSSVTAADTAVYYCARGWYYGSGSYHRNWFDPWGQGTLVTVSS VL: EIVLTQSPGTLSLSPGERATLSCRASQSVYYSYLAWYQQKPGQAPRLLIYGASNRATGIPDRFSGSGSGTDFTLTISRLEPEDFAVYYCQQYGNSPWTFGQGTKVEIK	224000 M⁻¹ s⁻¹	7.74e-05 s⁻¹	> 100000 pM	11.8	–	–	–
H4H30439P (antibody, V domains shown) VH: QVQLVESGGGVVQPGRSLRLSCAASGFTFSGYGIHWVRQAPGKGLVWVAVIWYDGSFKYYADSVKGRFTISRDNSKNTLYLQMNSLRAEDTAVYYCARGDSSSSGRYYYYGMDVWGQGTTVTVSS VL: DIQMTQSPSSLSASVGDRVTITCRASQGIRNDLGWYQQKPGTAPKRLIFAASSLQSGVPSRFSGSGSGTEFTLTISSLQPEDFATYYCLQHNNYPPTFGGGTKVEIK	277000 M⁻¹ s⁻¹	0.000189 s⁻¹	–	–	152.4 RU	681 pM	769 pM
REGN8051 (antibody, V domains shown) VH: QVQLVESGGGVGQPGRSLRLSCAASGFTFSRNAMHWVRQAPGKGLEWVAVISYDGSNKHYADSVKGRFTISRDNSKNTLYLEMNSLRVEDTAVYYCAKGGIPFDYWGQGTLVTVSS VL: DIVMTQSPLSSPVTLGQPASISCRSSQSLVHFDGNTYLSWLHQRPGQPPRLLIYKISNRFSGVPDRFSGSGAGTDFTLKISRVEPEDVGVYYCMHATQFPYTFGQGTKLEIK	61900 M⁻¹ s⁻¹	0.000211 s⁻¹	> 100000 pM	18.0	–	–	–
